Square brackets hold non-standard residues; d marks the D form. Phe(βS-OH) = N[C@H](C(=O)O)[C@@H](O)c1ccccc1; Pro(trans-4-F) = O=C(O)[C@@H]1C[C@@H](F)CN1; Arg(Me) = CNC(=N)NCCC[C@H](N)C(=O)O; Dap(CONH2) = NC(=O)NC[C@H](N)C(=O)O; cisHyp = O=C(O)[C@@H]1C[C@H](O)CN1; Hyp = O=C(O)[C@@H]1C[C@@H](O)CN1; d4Pal = N[C@H](Cc1ccncc1)C(=O)O; Pip = O=C(O)[C@@H]1CCCCN1; Aze = O=C(O)[C@@H]1CCN1; Nva = CCC[C@H](N)C(=O)O; azaGly = NNC(=O)O
Molecular target: human OT7T175 (metastin receptor) (human) (UniProt Q969F8)
Assay: cell-based or functional assay

human OT7T175 (metastin receptor) (human), sequence (Q969F8 whole entry L364H): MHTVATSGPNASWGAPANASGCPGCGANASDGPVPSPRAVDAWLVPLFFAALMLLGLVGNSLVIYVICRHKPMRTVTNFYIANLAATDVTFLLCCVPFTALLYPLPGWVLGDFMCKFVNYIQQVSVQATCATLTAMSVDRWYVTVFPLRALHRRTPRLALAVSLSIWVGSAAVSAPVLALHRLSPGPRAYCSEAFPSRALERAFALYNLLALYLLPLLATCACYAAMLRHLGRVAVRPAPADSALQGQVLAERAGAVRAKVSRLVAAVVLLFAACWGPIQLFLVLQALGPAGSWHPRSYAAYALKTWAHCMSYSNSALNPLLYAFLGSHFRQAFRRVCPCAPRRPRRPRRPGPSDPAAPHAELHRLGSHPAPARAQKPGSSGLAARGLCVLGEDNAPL

B1: des(1)-Ac-[D-Tyr2,D-Trp3,Alb4,Thr5,AzaGly7,Arg(Me)9,Trp10]MS10 (peptide)
peptide: Ac-[dY][dW][Dap(CONH2)]TF[azaGly]L[Arg(Me)]W-NH2
SMILES: CNC(=N)NCCC[C@H](NC(=O)[C@H](CC(C)C)NC(=O)NNC(=O)[C@H](Cc1ccccc1)NC(=O)[C@@H](NC(=O)[C@H](CNC(N)=O)NC(=O)[C@@H](Cc1c[nH]c2ccccc12)NC(=O)[C@@H](Cc1ccc(O)cc1)NC(C)=O)[C@@H](C)O)C(=O)N[C@@H](Cc1c[nH]c2ccccc12)C(N)=O
intracellular Ca ion level-increasing activity [specific activity to Metastin (1-54)] (relative to Metastin (1-54)): 1

B2: des(1)-Ac-[D-Tyr2,Hyp3,Thr5,erythro-Ser(3Phenyl)6,AzaGly7,Arg(Me)9,Trp10]MS10 (peptide)
peptide: Ac-[dY][Hyp]NT[Phe(βS-OH)][azaGly]L[Arg(Me)]W-NH2
SMILES: CNC(=N)NCCC[C@H](NC(=O)[C@H](CC(C)C)NC(=O)NNC(=O)[C@@H](NC(=O)[C@@H](NC(=O)[C@H](CC(N)=O)NC(=O)[C@@H]1C[C@@H](O)CN1C(=O)[C@@H](Cc1ccc(O)cc1)NC(C)=O)[C@@H](C)O)[C@@H](O)c1ccccc1)C(=O)N[C@@H](Cc1c[nH]c2ccccc12)C(N)=O
intracellular Ca ion level-increasing activity [specific activity to Metastin (1-54)] (relative to Metastin (1-54)): 0.8

B3: des(1)-Ac-[D-Tyr2,Hyp3,Nva4,Thr5,AzaGly7,Arg(Me)9,Trp10]MS10 (peptide)
peptide: Ac-[dY][Hyp][Nva]TF[azaGly]L[Arg(Me)]W-NH2
SMILES: CCC[C@H](NC(=O)[C@@H]1C[C@@H](O)CN1C(=O)[C@@H](Cc1ccc(O)cc1)NC(C)=O)C(=O)N[C@H](C(=O)N[C@@H](Cc1ccccc1)C(=O)NNC(=O)N[C@@H](CC(C)C)C(=O)N[C@@H](CCCNC(=N)NC)C(=O)N[C@@H](Cc1c[nH]c2ccccc12)C(N)=O)[C@@H](C)O
intracellular Ca ion level-increasing activity [specific activity to Metastin (1-54)] (relative to Metastin (1-54)): 1.2

{3‑(p-hydroxyphenyl)propionyl}-[Hyp]NTF[azaGly]L[Arg(Me)]W-NH2 [des(1-2)-3-(p-Hydroxyphenyl)propionyl-[Hyp3,Thr5,AzaGly7,Arg(Me)9,Trp10]MS10]
intracellular Ca ion level-increasing activity [specific activity to Metastin (1-54)] (relative to Metastin (1-54)): 1.1

Ac-[dY][cisHyp]NTF[azaGly]L[Arg(Me)]W-NH2 [des(1)-Ac-[D-Tyr2,cisHyp3,Thr5,AzaGly7,Arg(Me)9,Trp10]MS10]
intracellular Ca ion level-increasing activity [specific activity to Metastin (1-54)] (relative to Metastin (1-54)): 0.6

B4: des(1)-Ac-[D-Tyr2,Pro(4F)3,Thr5,AzaGly7,Arg(Me)9,Trp10]MS10 (peptide)
peptide: Ac-[dY][Pro(trans-4-F)]NTF[azaGly]L[Arg(Me)]W-NH2
SMILES: CNC(=N)NCCC[C@H](NC(=O)[C@H](CC(C)C)NC(=O)NNC(=O)[C@H](Cc1ccccc1)NC(=O)[C@@H](NC(=O)[C@H](CC(N)=O)NC(=O)[C@@H]1C[C@@H](F)CN1C(=O)[C@@H](Cc1ccc(O)cc1)NC(C)=O)[C@@H](C)O)C(=O)N[C@@H](Cc1c[nH]c2ccccc12)C(N)=O
intracellular Ca ion level-increasing activity [specific activity to Metastin (1-54)] (relative to Metastin (1-54)): 0.7

Ac-Y[Hyp]NTF[azaGly]L[Arg(Me)]W-NH2 [des(1)-Ac-[Tyr2,Hyp3,Thr5,AzaGly7,Arg(Me)9,Trp10]MS10]
intracellular Ca ion level-increasing activity [specific activity to Metastin (1-54)] (relative to Metastin (1-54)): 1.1

B5: des(1)-Ac-[D-Tyr2,D-Pya(4)3,Alb4,Thr5,AzaGly7,Arg(Me)9,Trp10]MS10 (peptide)
peptide: Ac-[dY][d4Pal][Dap(CONH2)]TF[azaGly]L[Arg(Me)]W-NH2
SMILES: CNC(=N)NCCC[C@H](NC(=O)[C@H](CC(C)C)NC(=O)NNC(=O)[C@H](Cc1ccccc1)NC(=O)[C@@H](NC(=O)[C@H](CNC(N)=O)NC(=O)[C@@H](Cc1ccncc1)NC(=O)[C@@H](Cc1ccc(O)cc1)NC(C)=O)[C@@H](C)O)C(=O)N[C@@H](Cc1c[nH]c2ccccc12)C(N)=O
intracellular Ca ion level-increasing activity [specific activity to Metastin (1-54)] (relative to Metastin (1-54)): 2.6

B6: des(1)-Ac-[D-Tyr2,D-Trp3,D-Pro5,AzaGly7,Arg(Me)9,Trp10]MS10 (peptide)
peptide: Ac-[dY][dW]N[dP]F[azaGly]L[Arg(Me)]W-NH2
SMILES: CNC(=N)NCCC[C@H](NC(=O)[C@H](CC(C)C)NC(=O)NNC(=O)[C@H](Cc1ccccc1)NC(=O)[C@H]1CCCN1C(=O)[C@H](CC(N)=O)NC(=O)[C@@H](Cc1c[nH]c2ccccc12)NC(=O)[C@@H](Cc1ccc(O)cc1)NC(C)=O)C(=O)N[C@@H](Cc1c[nH]c2ccccc12)C(N)=O
intracellular Ca ion level-increasing activity [specific activity to Metastin (1-54)] (relative to Metastin (1-54)): 3.8

B7: des(1)-Ac-[D-Tyr2,Aze(2)3,Thr5,AzaGly7,Arg(Me)9,Trp10]MS10 (peptide)
peptide: Ac-[dY][Aze]NTF[azaGly]L[Arg(Me)]W-NH2
SMILES: CNC(=N)NCCC[C@H](NC(=O)[C@H](CC(C)C)NC(=O)NNC(=O)[C@H](Cc1ccccc1)NC(=O)[C@@H](NC(=O)[C@H](CC(N)=O)NC(=O)[C@@H]1CCN1C(=O)[C@@H](Cc1ccc(O)cc1)NC(C)=O)[C@@H](C)O)C(=O)N[C@@H](Cc1c[nH]c2ccccc12)C(N)=O
intracellular Ca ion level-increasing activity [specific activity to Metastin (1-54)] (relative to Metastin (1-54)): 0.8

B8: des(1)-Ac-[D-Tyr2,Pic(2)3,Thr5,AzaGly7,Arg(Me)9,Trp10]MS10 (peptide)
peptide: Ac-[dY][Pip]NTF[azaGly]L[Arg(Me)]W-NH2
SMILES: CNC(=N)NCCC[C@H](NC(=O)[C@H](CC(C)C)NC(=O)NNC(=O)[C@H](Cc1ccccc1)NC(=O)[C@@H](NC(=O)[C@H](CC(N)=O)NC(=O)[C@@H]1CCCCN1C(=O)[C@@H](Cc1ccc(O)cc1)NC(C)=O)[C@@H](C)O)C(=O)N[C@@H](Cc1c[nH]c2ccccc12)C(N)=O
intracellular Ca ion level-increasing activity [specific activity to Metastin (1-54)] (relative to Metastin (1-54)): 1.1
